Results on seven molecules are retold here after US20190351049A1 (Regeneron, published 2019).

Test [1] concerns the target T1, MERS RBD-hFc (MERS-CoV (isolate EMC/2012)). Briefly: SPR Biacore, captured mAb, 37 C. In general terms: SPR reads the build-up and loss of mass on a sensor chip optically.
The target in test [2] is T1, MERS RBD-hFc. The test can be described thus: ELISA on coated MERS RBD-hFc, hybridoma supernatant 1:50, absorbance at 450 nm. In general terms: An ELISA detects its analyte on a solid surface through an enzyme-linked reagent.
For test [3], the target named is T1, MERS RBD-hFc. Briefly: SPR (Biacore), hybridoma supernatant antibody captured, MERS RBD-hFc as analyte.
Test [4] addresses T1, MERS RBD-hFc. The test can be described thus: SPR Biacore, captured mAb, 25 C.

Some results are limits rather than exact numbers.

B1: H2aM15287N (antibody, V domains shown)
VH: QLQLQESGPGLVKPSETLSLTCTVSGGSISSGNYYWGWIRQPPGKGLEWFGTIYYSGSTYYNPSLKSRVTISVDTSKNQFSLKLSSVTAADTAVYYCARRAAVGHFDYWGQGTLVTVSS
VL: DIQMTQSPSTLSASVGDRVTITCRASQSISTWLAWYQQKPGKAPKLLIYEASSLESGVPSRFSGSGFGTEFTLTISRLQPDDFATYFCQQYNTYWTFGQGTKVEIK
As for B1, in the test with MERS RBD-hFc [1], the Kd (as a rule, the equilibrium constant for the complex coming apart) amounted to 10.9 nM; the koff – broadly, a measure of how fast the partners let go of each other – stood at 0.00189 s⁻¹; the kon (usually the rate constant with which the complex forms) turned out to be 174000 M⁻¹ s⁻¹; the t1/2 is 0.1 h. In addition, the “ELISA Binding” value in the test with MERS RBD-hFc [2] came out at 2.53. In addition, in the test with MERS RBD-hFc [3], the Kd was found to be 0.245 nM and the t½ – broadly, the time needed for the level to fall by half in the phase considered – was not below 1.92 h. In the test with MERS RBD-hFc [4], the Kd was found to be 6.98 nM, the koff was 0.000442 s⁻¹, the kon was 63300 M⁻¹ s⁻¹ and the t1/2 stood at 0.433 h.

B2: H1M15289N (antibody, V domains shown)
VH: QVQLQESGPGLVKPSETLSLTCTVSGGSISSYYWSWIRQPPGKGLEWIGYIYYSGSANYNPSLKSRVTISVDTSKNQFSLKLSSVTAADTAVYYCVRDRDLLLDHWGQGTLVTVSS
VL: EIVMTQSPATLSVSPGKRATLSCRASQSVSSNLAWYQQKPGQAPRLLIYGASTRTTGFPARFSGSGSGTDFTLTISSLQSEDFAVYYCQQYNNWPYTFGQGTMLEIK
Take B2: in the test with MERS RBD-hFc [1], the Kd amounted to 0.275 nM, the koff is 0.000126 s⁻¹, the kon worked out at 459000 M⁻¹ s⁻¹ and the t1/2 was 1.53 h. Also, the “ELISA Binding” value with MERS RBD-hFc [2] came to 2.73. Further, in the test with MERS RBD-hFc [3], the affinity, expressed as Kd, was 0.669 nM and the t½ was not below 1.92 h. In the test with MERS RBD-hFc [4], this molecule came in with a Kd of 0.21 nM, a koff of 4.41e-05 s⁻¹, a kon of 210000 M⁻¹ s⁻¹ and a t1/2 of 4.37 h.

B3: H2bM15292N (antibody, V domains shown)
VH: QVQLVQSGAEVKKPGSSVKVSCKASGGTFNNYAISWVRQAPGQGLEWMGGIIPFFGTTNYAQKFQDRVTITSDDSTITAYMELSRLRSEDTAVYYCARDEPRRDGYNYYHYYYMDVWGQGTTVTVSS
VL: DIQMTQSPSSLSASVGDRVTITCRASQSINSYLNWYQQKPGKAPNLLIYAASSLQSGVPSRFSGSGSGTDFTLTISSLHPEDFATYYCQQSYSTPPITFGQGTRLEIK
Consider B3, for which, in the test with MERS RBD-hFc [1], the equilibrium dissociation constant (Kd) was 0.963 nM, the koff is 0.000524 s⁻¹, the kon amounted to 544000 M⁻¹ s⁻¹ and the t1/2 worked out at 0.367 h. In addition, the “ELISA Binding” value with MERS RBD-hFc [2] turned out to be 2.78. Besides, in the test with MERS RBD-hFc [3], the Kd worked out at 0.593 nM and the t½ turned out to be 1.13 h. Besides, in the test with MERS RBD-hFc [4], the affinity, expressed as Kd, was 0.34 nM; the koff worked out at 0.000155 s⁻¹; the kon amounted to 457000 M⁻¹ s⁻¹; the t1/2 was found to be 1.25 h.

B4: H1M15290N (antibody, V domains shown)
VH: QVQLVQSGAEVKKPGSSVKVSCKASGGTFSTYAISWVRQAPGQGLEWMGGIIPFFGTANYAQKFQGRVTITTDESTSTAYMELSSLRSEDTAVYYCAREGTYYDSLTGYYTHYYRMDVWGQGTTVTVSS
VL: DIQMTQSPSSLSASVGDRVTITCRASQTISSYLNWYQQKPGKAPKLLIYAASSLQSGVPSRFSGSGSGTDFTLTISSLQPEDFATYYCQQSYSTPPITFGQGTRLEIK
With B4, in the test with MERS RBD-hFc [1], the Kd was determined as 1.48 nM, the koff came to 0.000984 s⁻¹, the kon was 666000 M⁻¹ s⁻¹ and the t1/2 was determined as 0.2 h. Besides, the “ELISA Binding” value in the test with MERS RBD-hFc [2] was 2.76. Also, in the test with MERS RBD-hFc [3], binding was characterised by a dissociation constant (Kd) of 0.778 nM and the t½ turned out to be 1.34 h. In the test with MERS RBD-hFc [4], this molecule had a Kd of 0.438 nM, a koff of 0.000211 s⁻¹, a kon of 482000 M⁻¹ s⁻¹ and a t1/2 of 0.917 h.

B5: H1M15267N (antibody, V domains shown)
VH: QVQLQESGPGLVKPSETLSLTCTVSGGSISSYYWSWIRQPPGKGLEWIGYIYYSGSPNYNPSLKSRVTISVDTSKNQFSLKLTSVTAADTAVYYCARSLNWGPPFDYWGQGTLVTVSS
VL: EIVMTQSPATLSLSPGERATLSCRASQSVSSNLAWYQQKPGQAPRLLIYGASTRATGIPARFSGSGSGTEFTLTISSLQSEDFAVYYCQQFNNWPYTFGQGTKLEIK
For the molecule B5, in the test with MERS RBD-hFc [1], the Kd was determined as 0.314 nM, the koff was found to be 0.000745 s⁻¹, the kon came out at 2.37e+06 M⁻¹ s⁻¹ and the t1/2 was found to be 0.267 h. Besides, the “ELISA Binding” value with MERS RBD-hFc [2] was 2.62. In the test with MERS RBD-hFc [3], this molecule came in with a Kd of 0.328 nM and a t½ of 1.57 h. In the test with MERS RBD-hFc [4], this molecule gave a Kd of 0.181 nM, a koff of 0.000153 s⁻¹, a kon of 843000 M⁻¹ s⁻¹ and a t1/2 of 1.25 h.

B6: H1M15280N (antibody, V domains shown)
VH: EVQLLESGGGLVQPGGSLRLSCAASGFTFSSYAMSWVRQAPGKGLEWVSAISGSGSSTYYADSVKGRFTISRDNSKNTLFLQMNSLRAEDTAVYYCAEGGDVDFDYWGQGTLVTVSS
VL: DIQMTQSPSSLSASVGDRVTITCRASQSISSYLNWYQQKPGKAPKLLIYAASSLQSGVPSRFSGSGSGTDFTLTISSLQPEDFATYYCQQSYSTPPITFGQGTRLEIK
For B6, in the test with MERS RBD-hFc [1], binding was characterised by a dissociation constant (Kd) of 13.2 nM, the koff was determined as 0.00657 s⁻¹, the kon was determined as 497000 M⁻¹ s⁻¹ and the t1/2 stood at 0.03 h. In addition, the “ELISA Binding” value in the test with MERS RBD-hFc [2] is 2.75. For the same molecule, in the test with MERS RBD-hFc [3], the affinity, expressed as Kd, was 6.53 nM and the t½ came out at 0.123 h. In addition, in the test with MERS RBD-hFc [4], the equilibrium dissociation constant (Kd) was 18.5 nM, the koff was 0.00525 s⁻¹, the kon came to 283000 M⁻¹ s⁻¹ and the t1/2 amounted to 0.0367 h.

B7: H2aM15279N (antibody, V domains shown)
VH: EVQLLESGGGLVQTGGSLRLSCAASGFTFSNYAMSWVRQAPGKGLEWVSAISDRGGSIYYADSVKGRFTISRDNSKNTKYLQMDSLRAEDTAVYYCAQDRGFGVFDYWGQGTLVTVSS
VL: DIQMTQSPSSLSASVGDRVTITCQASQDIGNYLNWFQQRPGKAPNLLIYGASNLETGVPSRFSGGGSGTDFTFTISSLQPEDIATYFCQQYDNLPFTFGPGTKVEIK
For B7, in the test with MERS RBD-hFc [1], the Kd worked out at 0.32 nM, the koff stood at 0.000445 s⁻¹, the kon came out at 1.39e+06 M⁻¹ s⁻¹ and the t1/2 was 0.433 h. Further, in the test with MERS RBD-hFc [2], the “ELISA Binding” value was 2.18. In the test with MERS RBD-hFc [3], this molecule had a Kd of 0.266 nM and a t½ of 1.6 h. Besides, in the test with MERS RBD-hFc [4], the Kd was 0.102 nM, the koff came out at 8.91e-05 s⁻¹, the kon is 870000 M⁻¹ s⁻¹ and the t1/2 stood at 2.17 h.
